According to the supplement of paper PMC9112550, “Optimization of the antimicrobial peptide Bac7 by deep mutational scanning” (BMC Biology, 2022):

Tested on: Escherichia coli TOP10
Experiment: shrunken log2 fold change of peptide-encoding DNA abundance (4.5 h post-induction vs induction); higher = less antimicrobial activity (less host growth inhibition)
Settings: time post-induction: 4.5 h; library: site-saturation at positions 5, 18, 19, 20
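Further: peptides expressed intracellularly from a pBAD plasmid library in pooled LB shake-flask culture, induced with 0.3% L-arabinose, DNA abundance read by NGS, three biological replicates, DESeq2 with apeglm shrinkage.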

RRIRHRPPRLPRPRPRPKIHPRP
shrunken log2 fold change: -0.393

RRIRHRPPRLPRPRPRPKIRPRP
shrunken log2 fold change: -0.156

RRIRHRPPRLPRPRPRPKIVPRP
shrunken log2 fold change: 0.00911

RRIRHRPPRLPRPRPRPKIYPRP
shrunken log2 fold change: -0.296

RRIRHRPPRLPRPRPRPKLWPRP
shrunken log2 fold change: 0.392

RRIRHRPPRLPRPRPRPKNDPRP
shrunken log2 fold change: -0.268

RRIRHRPPRLPRPRPRPKNFPRP
shrunken log2 fold change: -0.0655

RRIRHRPPRLPRPRPRPKPAPRP
shrunken log2 fold change: 0.0168

RRIRHRPPRLPRPRPRPKQCPRP
shrunken log2 fold change: -0.224

RRIRHRPPRLPRPRPRPKQIPRP
shrunken log2 fold change: -0.0133

RRIRHRPPRLPRPRPRPKREPRP
shrunken log2 fold change: -0.0483

RRIRHRPPRLPRPRPRPKRNPRP
shrunken log2 fold change: 0.0354

RRIRHRPPRLPRPRPRPKSKPRP
shrunken log2 fold change: -0.598

RRIRHRPPRLPRPRPRPKWEPRP
shrunken log2 fold change: -0.000889

RRIRHRPPRLPRPRPRPKWTPRP
shrunken log2 fold change: 0.0551

RRIRHRPPRLPRPRPRPLAEPRP
shrunken log2 fold change: 0.243

RRIRHRPPRLPRPRPRPLANPRP
shrunken log2 fold change: -0.263

RRIRHRPPRLPRPRPRPLCVPRP
shrunken log2 fold change: 2.97

RRIRHRPPRLPRPRPRPLDCPRP
shrunken log2 fold change: -0.384

RRIRHRPPRLPRPRPRPLEKPRP
shrunken log2 fold change: -0.1

RRIRHRPPRLPRPRPRPLETPRP
shrunken log2 fold change: -0.47

RRIRHRPPRLPRPRPRPLFDPRP
shrunken log2 fold change: -0.692

RRIRHRPPRLPRPRPRPLFRPRP
shrunken log2 fold change: 0.0546

RRIRHRPPRLPRPRPRPLGHPRP
shrunken log2 fold change: -0.499

RRIRHRPPRLPRPRPRPLGYPRP
shrunken log2 fold change: -0.0228

RRIRHRPPRLPRPRPRPLHLPRP
shrunken log2 fold change: -0.0926

RRIRHRPPRLPRPRPRPLKAPRP
shrunken log2 fold change: -0.364

RRIRHRPPRLPRPRPRPLKHPRP
shrunken log2 fold change: -0.869

RRIRHRPPRLPRPRPRPLLIPRP
shrunken log2 fold change: -0.516

RRIRHRPPRLPRPRPRPLMGPRP
shrunken log2 fold change: 0.11

RRIRHRPPRLPRPRPRPLMQPRP
shrunken log2 fold change: -0.248

RRIRHRPPRLPRPRPRPLNDPRP
shrunken log2 fold change: 0.00159

RRIRHRPPRLPRPRPRPLPGPRP
shrunken log2 fold change: 0.103

RRIRHRPPRLPRPRPRPLQAPRP
shrunken log2 fold change: -0.279

RRIRHRPPRLPRPRPRPLRSPRP
shrunken log2 fold change: 0.549

RRIRHRPPRLPRPRPRPLRYPRP
shrunken log2 fold change: -0.388

RRIRHRPPRLPRPRPRPLSCPRP
shrunken log2 fold change: -0.287

RRIRHRPPRLPRPRPRPLSHPRP
shrunken log2 fold change: -0.00358

RRIRHRPPRLPRPRPRPLTDPRP
shrunken log2 fold change: -0.251

RRIRHRPPRLPRPRPRPLVKPRP
shrunken log2 fold change: -0.29

RRIRHRPPRLPRPRPRPLWIPRP
shrunken log2 fold change: -0.505

RRIRHRPPRLPRPRPRPLWPPRP
shrunken log2 fold change: 0.27

RRIRHRPPRLPRPRPRPLYCPRP
shrunken log2 fold change: -0.327

RRIRHRPPRLPRPRPRPLYYPRP
shrunken log2 fold change: -0.611

RRIRHRPPRLPRPRPRPMAVPRP
shrunken log2 fold change: 0.159

RRIRHRPPRLPRPRPRPMCVPRP
shrunken log2 fold change: -0.192

RRIRHRPPRLPRPRPRPMDAPRP
shrunken log2 fold change: 0.00875

RRIRHRPPRLPRPRPRPMDGPRP
shrunken log2 fold change: -0.0367

RRIRHRPPRLPRPRPRPMFLPRP
shrunken log2 fold change: -0.797

RRIRHRPPRLPRPRPRPMFSPRP
shrunken log2 fold change: -0.256

RRIRHRPPRLPRPRPRPMGQPRP
shrunken log2 fold change: -0.239

RRIRHRPPRLPRPRPRPMGSPRP
shrunken log2 fold change: -0.0537

RRIRHRPPRLPRPRPRPMICPRP
shrunken log2 fold change: -0.163

RRIRHRPPRLPRPRPRPMKTPRP
shrunken log2 fold change: -0.0218

RRIRHRPPRLPRPRPRPMLYPRP
shrunken log2 fold change: -1.49

RRIRHRPPRLPRPRPRPMMMPRP
shrunken log2 fold change: -0.0507

RRIRHRPPRLPRPRPRPMMVPRP
shrunken log2 fold change: -0.0274

RRIRHRPPRLPRPRPRPMTNPRP
shrunken log2 fold change: -0.19

RRIRHRPPRLPRPRPRPMTVPRP
shrunken log2 fold change: 0.055

RRIRHRPPRLPRPRPRPMTYPRP
shrunken log2 fold change: -0.19

RRIRHRPPRLPRPRPRPMVNPRP
shrunken log2 fold change: -0.469

RRIRHRPPRLPRPRPRPMWCPRP
shrunken log2 fold change: -0.187

RRIRHRPPRLPRPRPRPNAPPRP
shrunken log2 fold change: 0.0964

RRIRHRPPRLPRPRPRPNDCPRP
shrunken log2 fold change: 0.000576

RRIRHRPPRLPRPRPRPNDKPRP
shrunken log2 fold change: -0.526

RRIRHRPPRLPRPRPRPNERPRP
shrunken log2 fold change: 0.0404

RRIRHRPPRLPRPRPRPNFSPRP
shrunken log2 fold change: -0.415

RRIRHRPPRLPRPRPRPNGEPRP
shrunken log2 fold change: 0.164

RRIRHRPPRLPRPRPRPNICPRP
shrunken log2 fold change: -0.925

RRIRHRPPRLPRPRPRPNIPPRP
shrunken log2 fold change: -0.234

RRIRHRPPRLPRPRPRPNKMPRP
shrunken log2 fold change: -0.0582

RRIRHRPPRLPRPRPRPNLWPRP
shrunken log2 fold change: 0.173

RRIRHRPPRLPRPRPRPNNPPRP
shrunken log2 fold change: -0.874

RRIRHRPPRLPRPRPRPNNYPRP
shrunken log2 fold change: -0.857

RRIRHRPPRLPRPRPRPNPLPRP
shrunken log2 fold change: -0.0904

RRIRHRPPRLPRPRPRPNQAPRP
shrunken log2 fold change: 0.033

RRIRHRPPRLPRPRPRPNQEPRP
shrunken log2 fold change: -0.00942

RRIRHRPPRLPRPRPRPNQPPRP
shrunken log2 fold change: 0.00401

RRIRHRPPRLPRPRPRPNRKPRP
shrunken log2 fold change: 0.0857

RRIRHRPPRLPRPRPRPNRTPRP
shrunken log2 fold change: 0.031

RRIRHRPPRLPRPRPRPNSHPRP
shrunken log2 fold change: -1.09

RRIRHRPPRLPRPRPRPNSSPRP
shrunken log2 fold change: -0.203

RRIRHRPPRLPRPRPRPNSWPRP
shrunken log2 fold change: 0.254

RRIRHRPPRLPRPRPRPNTCPRP
shrunken log2 fold change: -0.53

RRIRHRPPRLPRPRPRPNTQPRP
shrunken log2 fold change: -0.248

RRIRHRPPRLPRPRPRPNYKPRP
shrunken log2 fold change: -0.603

RRIRHRPPRLPRPRPRPPAVPRP
shrunken log2 fold change: 0.373

RRIRHRPPRLPRPRPRPPCNPRP
shrunken log2 fold change: -0.221

RRIRHRPPRLPRPRPRPPCWPRP
shrunken log2 fold change: 0.142

RRIRHRPPRLPRPRPRPPENPRP
shrunken log2 fold change: 0.116

RRIRHRPPRLPRPRPRPPFHPRP
shrunken log2 fold change: -0.119

RRIRHRPPRLPRPRPRPPFQPRP
shrunken log2 fold change: 0.0923

RRIRHRPPRLPRPRPRPPHLPRP
shrunken log2 fold change: 0.0576

RRIRHRPPRLPRPRPRPPHQPRP
shrunken log2 fold change: -0.151

RRIRHRPPRLPRPRPRPPIRPRP
shrunken log2 fold change: 0.309

RRIRHRPPRLPRPRPRPPKRPRP
shrunken log2 fold change: -0.142

RRIRHRPPRLPRPRPRPPKSPRP
shrunken log2 fold change: 0.398

RRIRHRPPRLPRPRPRPPKTPRP
shrunken log2 fold change: 0.177

RRIRHRPPRLPRPRPRPPLFPRP
shrunken log2 fold change: 0.169

RRIRHRPPRLPRPRPRPPMCPRP
shrunken log2 fold change: -0.00483

RRIRHRPPRLPRPRPRPPMSPRP
shrunken log2 fold change: 0.0891

RRIRHRPPRLPRPRPRPPMVPRP
shrunken log2 fold change: 0.0642

RRIRHRPPRLPRPRPRPPMYPRP
shrunken log2 fold change: -0.739

RRIRHRPPRLPRPRPRPPNFPRP
shrunken log2 fold change: -0.00427

RRIRHRPPRLPRPRPRPPNRPRP
shrunken log2 fold change: -0.0966

RRIRHRPPRLPRPRPRPPNSPRP
shrunken log2 fold change: -0.201

RRIRHRPPRLPRPRPRPPNWPRP
shrunken log2 fold change: 0.494

RRIRHRPPRLPRPRPRPPPFPRP
shrunken log2 fold change: 0.0505

RRIRHRPPRLPRPRPRPPPGPRP
shrunken log2 fold change: 0.769

RRIRHRPPRLPRPRPRPPQFPRP
shrunken log2 fold change: 0.0105

RRIRHRPPRLPRPRPRPPQNPRP
shrunken log2 fold change: 0.613

RRIRHRPPRLPRPRPRPPQYPRP
shrunken log2 fold change: -0.154

RRIRHRPPRLPRPRPRPPREPRP
shrunken log2 fold change: 0.204

RRIRHRPPRLPRPRPRPPRSPRP
shrunken log2 fold change: 0.704

RRIRHRPPRLPRPRPRPPSDPRP
shrunken log2 fold change: 0.146

RRIRHRPPRLPRPRPRPPSIPRP
shrunken log2 fold change: -0.165

RRIRHRPPRLPRPRPRPPSRPRP
shrunken log2 fold change: 0.17

RRIRHRPPRLPRPRPRPPVDPRP
shrunken log2 fold change: 1.89

RRIRHRPPRLPRPRPRPPVFPRP
shrunken log2 fold change: 0.612

RRIRHRPPRLPRPRPRPPVSPRP
shrunken log2 fold change: -0.0862

RRIRHRPPRLPRPRPRPPYGPRP
shrunken log2 fold change: 0.0267

RRIRHRPPRLPRPRPRPQADPRP
shrunken log2 fold change: -0.139

RRIRHRPPRLPRPRPRPQCCPRP
shrunken log2 fold change: -0.00176

RRIRHRPPRLPRPRPRPQCEPRP
shrunken log2 fold change: -0.122

RRIRHRPPRLPRPRPRPQCTPRP
shrunken log2 fold change: -0.124

RRIRHRPPRLPRPRPRPQEFPRP
shrunken log2 fold change: -0.00101

RRIRHRPPRLPRPRPRPQEHPRP
shrunken log2 fold change: -0.389

RRIRHRPPRLPRPRPRPQESPRP
shrunken log2 fold change: 0.00355

RRIRHRPPRLPRPRPRPQFDPRP
shrunken log2 fold change: 0.0132

RRIRHRPPRLPRPRPRPQGCPRP
shrunken log2 fold change: -0.0592

RRIRHRPPRLPRPRPRPQINPRP
shrunken log2 fold change: -0.827

RRIRHRPPRLPRPRPRPQLAPRP
shrunken log2 fold change: 0.0733

RRIRHRPPRLPRPRPRPQLCPRP
shrunken log2 fold change: 0.0716

RRIRHRPPRLPRPRPRPQLPPRP
shrunken log2 fold change: 0.181

RRIRHRPPRLPRPRPRPQLTPRP
shrunken log2 fold change: -0.261

RRIRHRPPRLPRPRPRPQLYPRP
shrunken log2 fold change: -0.238

RRIRHRPPRLPRPRPRPQMIPRP
shrunken log2 fold change: -0.139

RRIRHRPPRLPRPRPRPQMWPRP
shrunken log2 fold change: 2.46e-05

RRIRHRPPRLPRPRPRPQNIPRP
shrunken log2 fold change: -0.269

RRIRHRPPRLPRPRPRPQPMPRP
shrunken log2 fold change: -0.109

RRIRHRPPRLPRPRPRPQQVPRP
shrunken log2 fold change: -0.0214

RRIRHRPPRLPRPRPRPQRTPRP
shrunken log2 fold change: -0.145

RRIRHRPPRLPRPRPRPQSWPRP
shrunken log2 fold change: 0.0657

RRIRHRPPRLPRPRPRPQTPPRP
shrunken log2 fold change: 0.374

RRIRHRPPRLPRPRPRPQVAPRP
shrunken log2 fold change: 0.0753

RRIRHRPPRLPRPRPRPQWKPRP
shrunken log2 fold change: -0.0774

RRIRHRPPRLPRPRPRPRADPRP
shrunken log2 fold change: 0.185

RRIRHRPPRLPRPRPRPRANPRP
shrunken log2 fold change: 0.177

RRIRHRPPRLPRPRPRPRAQPRP
shrunken log2 fold change: 0.0972

RRIRHRPPRLPRPRPRPRCGPRP
shrunken log2 fold change: 0.202
